From US8545834B2, “G-substrate for the treatment and prevention of parkinson's disease” (The McLean Hospital Corporation, priority 2007, dated 2013)

Columns and labels:
TH-positive neurons = test: Transduction of midbrain TH-positive neurons after intra-nigral lentivirus injection; format: in vivo, rat; conditions: naïve rats; compared to GFP-transduced rats
Description: A lentivirus encoding G-substrate (Lenti G-substrate) was stereotactically injected immediately dorsal to the substantia nigra in rats. The transduction efficiency of the lentivirus was then determined. Lenti G-substrate was transduced into TH-positive neurons to varying degrees depending upon the neuroanatomical level.
Rats received two 2.75 μl stereotaxic injections of either lenti-empty vector+lenti-eGFP (n=19), lenti-G substrate+lenti-eGFP (n=19), or lenti-YFP (n=14) and delivered at a rate of 0.2 μl/min using microinfusion pumps (Stoelting Co, Wood Dale, Ill.) with 10 min wait times after each injection. […]
Estimates of TH-positive neuronal number within the SN were performed using Stereo Investigator™ software (MBF Bioscience, Williston, Vt.) and stereologic principles (West et al., J. Comp. Neurol. 296: 1-22, 1990). […] For each tissue section analyzed, section thickness was assessed empirically and guard zones of 2 μm thickness were used at the top and bottom of each section. The SN was outlined under low magnification (2.5×) and approximately 50% of the outlined region was analyzed using a systematic random sampling design generated with the following stereologic parameters: grid size, 200×200 μm; counting frame size, 153×140 μm; and dissector height, 16 μm. […]

PP2A = PP2A activity assay (immunoprecipitated PP2A, phosphopeptide, Malachite Green); format: cell-based, human; conditions: BE(2)-M17 cells exposed to 50 μM 6-OHDA for 2 hours; versus control cells
Description: PP2A activity was measured in control BE(2)-M17 cells at various incubation times (t=0, 1, 2, 5 and 8 hr) after exposure to 50 μM 6-OHDA. […] Control, wild-type, and T123A G-substrate-expressing cells were then exposed to 50 μM 6-OHDA for 2 hours before measurement of PP2A activity.
PP2A activity was measured using a non-radioactive kit according to the manufacturer's instruction (Upstate Biotechnologies, Lake Placid, N.Y.). After 50 μM 6-OHDA exposure with various times, cells were harvested in 20 mM imidazole-HCl, 2 mM EDTA, 2 mM EGTA, pH7 with a protease inhibitor cocktail (Sigma). Protein concentrations of the lysates were measured using BCA assay (Pierce) and 500 μg of protein was immunoprecipitated using an anti-PP2A catalytic subunit antibody and protein A-Sepharose beads. Immunoprecipitated PP2A was then incubated with phosphopeptide (K-R-pT-I-R-R (SEQ ID NO: 8)) for 10 min at 37° C. Dephosphorylation of the phosphopeptide was assayed spectrophotometrically at 650 nm using Malachite Green.

G-substrate: human wild type G-substrate (SEQ ID NO.: 1) overexpressed from a lentiviral vector
total number of TH-positive neurons in midbrain (TH-positive neurons): did not alter
PP2A activity in G-substrate-expressing cells (PP2A): significant reduction
